Reference: doi:10.1101/2020.06.12.149252

Molecular target: taxol-stabilized microtubules (porcine brain tubulin) (porcine) (UniProt P02550)
Experiment: TIRF microscopy

UniProt P02550, sequence (P02550 whole entry): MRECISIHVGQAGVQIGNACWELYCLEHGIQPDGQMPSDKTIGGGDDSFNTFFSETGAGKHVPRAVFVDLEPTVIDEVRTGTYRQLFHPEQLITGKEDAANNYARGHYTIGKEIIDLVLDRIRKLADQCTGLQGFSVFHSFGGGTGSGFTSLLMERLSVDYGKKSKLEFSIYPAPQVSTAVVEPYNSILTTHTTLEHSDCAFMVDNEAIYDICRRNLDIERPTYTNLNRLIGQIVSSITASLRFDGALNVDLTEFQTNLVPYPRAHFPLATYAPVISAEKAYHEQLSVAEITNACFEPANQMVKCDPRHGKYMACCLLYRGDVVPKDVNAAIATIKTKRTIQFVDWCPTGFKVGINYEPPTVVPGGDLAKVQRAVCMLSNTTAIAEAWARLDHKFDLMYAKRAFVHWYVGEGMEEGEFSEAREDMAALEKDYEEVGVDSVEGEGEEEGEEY

Substance | microtubule-bound fluorescence intensity at 3 nM | Kd [nM] | microtubule-bound fluorescence intensity at 12 nM | microtubule-bound fluorescence intensity at 48 nM | microtubule-bound fluorescence intensity at 25 nM
sfGFP-DCLK1-WT, expressed in bacteria under standard conditions (from UniProt O15075 1-740) (natural protein) | 2560 | – | – | – | 16500
sfGFP-DCLK1-D511N (kinase dead), expressed in bacteria under standard conditions (from UniProt O15075 1-740) (natural protein) | 7140 | – | – | – | 19600
sfGFP-DCLK1-ΔC (aa 1-648) treated with lambda phosphatase after purification (from UniProt O15075 1-648) (domain or fragment) | 11800 | – | – | – | 21600
sfGFP-DCLK1-WT treated with lambda phosphatase after purification (from UniProt O15075 1-740) (natural protein) | 15900 | – | – | – | 18200
sfGFP-DCLK1-T687A co-expressed with lambda phosphatase, without ATP (from UniProt O15075 1-740) (natural protein) | – | 2.4 | – | – | –
sfGFP-DCLK1-T688A co-expressed with lambda phosphatase, without ATP (from UniProt O15075 1-740) (natural protein) | – | 2.4 | – | – | –
sfGFP-DCLK1-WT co-expressed with lambda phosphatase, without ATP (from UniProt O15075 1-740) (natural protein) | 14900 | 2.9 | 20600 | 15900 | –

More lines, main results first:

microtubule-bound fluorescence intensity at 3 nM | Kd [nM] | microtubule-bound fluorescence intensity at 12 nM | microtubule-bound fluorescence intensity at 48 nM | Substance | microtubule-bound fluorescence intensity at 25 nM
– | 9.4 | – | – | sfGFP-DCLK1-T687/688A co-expressed with lambda phosphatase, without ATP (from UniProt O15075 1-740) (natural protein) | –
6790 | 3.9 | 9840 | 14800 | sfGFP-DCLK1-ΔC (aa 1-648) co-expressed with lambda phosphatase, without ATP (from UniProt O15075 1-648) (domain or fragment) | –
745 | – | 2550 | 4530 | sfGFP-DCLK1-ΔC4A co-expressed with lambda phosphatase, without ATP (from UniProt O15075 1-648) (domain or fragment) | –
